Test results: the DeepSol protein solubility set

Test: soluble on expression in E. coli; label from the status in PepcDB or PDB records

| Sequence | soluble on expression in E. coli |
| --- | --- |
| RIWRIIPDTSVIIDGRLSSRIKSGEFGSAEVIIPEAVVSELEAQANKGREIGFKGLEELSELRKLADRGDIQLKFSGVQPSLEEIKLSREGRVDALIRQTALDEGGLFVSEDRVQSLIARAKGLDVEYMHPKV | not soluble |
| RKLATAAKVSAMGSLNDLFESVSDRLRDSGRLIVVDEAENLPLRALEIVRRLHDETGCGLVLSGMPRLVANLRGKHGELVQLYSRVSVALNLGESLPDDELFEIAKAALPDAVKHLLPDSVQALITVIGFNETLELVRLMGGTTYPLRQGYTKNSQSRVAYLEEIIGSEAAGRLVEAMAPCNLFIPRCETALYELRNRKIRSQFDRQTAGGTPAYEAVNDLALAHRLSDRHVWRILKQADKEAEQENLF | not soluble |
| RLIRSVLCSSSAGFGQGFCSPSLRRHLSARFPRGHGNALANFSSCARSRVHAYSSASSATSVGVPVAKMRFIDIGANLLDEMYTGQYNDKPYHPPDLSAVLERAWAAGLEKLMITAGSLKEARAALELAKTDERLYCTVGCHPTRCKEFEDHPGGPEAYLQELLEVLKEGQALGKVVAVGECGLVATDYERLHFCDADTQKKYFEAQFRLAKESGLPMFLHLRAAADDFLDITGRHLGDFPRGGVVHSFDGTAEEAARVLAVPQLAIGINGCSLKTDDNLAVVGGLPLERIMLETDCPWCEIRPTHAGRKHVSAEALAGVTGAKDRKKFMPGCQVKS | not soluble |
| RMALSVLASSKEELFMPLLSQEAAHPDEWAGRLKNLSVNAEHAVTASLKNAEKAAVILGAEVQNHPDYAAVYAAAQELADATGAVLGILPQAANSVGADVLNVNSGKSVVEMVNAPKQAVLLLNVEPEIDTADGAKAVAALKQAKSVMAFTPFVSETLLDVCDVLLPIAPFTETSGSFINMEGRLQSFHGVVQGFGDSRPLWKVLRVLGNLFDLKGFEYHDTAAILKDALDVESLPSKLDNRNAWTGEGVQTTSDRLVRVGGVGIYHTDSIVRRSAPLQETSHAAVPAARVNPNTLARLGLQDGQTAVAKQNGASVSVAVKADAGLPENVVHLPLHTENAALGALMDTIELAGA | not soluble |
| RNDTECDLCGGDPEKKCHSCSCRVCGGKHEPNMQLLCDECNVAYHIYCLNPPLDKVPEEEYWYCPSCKTD | soluble |
| RPPKWTGMDVWAAAICFNTVEAAKKNLPKPESWADLTKPVYKGQIVMPHPASSGTGYLDVSAWLQTLGEKKGWDYMDKLHANMAQYVHSGSKPCKMAAAGEYPIGISFEYRGAQLKEKGAPIDLIYPKEGLGWDLEATAIIKGTKNLEAARKLADFSVSLPAMKLYEQNYAVLAMPGV | not soluble |
| RQTHYLIHSDLGFRTRGVLWISNTVDSVPKGILRAELEKIPGVEKVSYACGNPIRYLNNMSFTKDGVNVSTWEMVVDSVFFDFFEISPIPLTDEPVETFFDREKMRAARIIPEWGNMKMINAVRPDPETGIFTQGDDDNDEVKYRMVGRIPDLKYKPLNMEQSPLQIRPLYAREQPWVTLVRASDEADKSAVLAAVSDTYKRVTGAEDIEPLWAEDIILDRYKSQTNLSQ | not soluble |
| RRSPPADAIPKSKKVKVSHRSHSTEPGLVLTLGQGDVGQLGLGENVMERKKPALVSIPEDVVQAEAGGMHTVCLSKSGQVYSFGCNDEGALGRDTSVEGSEMVPGKVELQEKVVQVSAGDSHTAALTDDGRVFLWGSFRDNNGVIGLLEPMKKSMVPVQVQLDVPVVKVASGNDHLVMLTADGDLYTLGCGEQGQLGRVPELFANRGGRQGLERLLVPKCVMLKSRGSRGHVRFQDAFCGAYFTFAISHEGHVYGFGLSNYHQLGTPGTESCFIPQNLTSFKNSTKSWVGFSGGQHHTVCMDSEGKAYSLGRAEYGRLGLGEGAEEKSIPTLISRLPAVSSVACGASVGYAVTKDGRVFAWGMGTNYQLGTGQDEDAWSPVEMMGKQLENRVVLSVSSGGQHTVLLVKDKEQS | soluble |
| RSDSIMILSINPKTKKTEIVSIPRDTRAEIVGRGTTEKIAHAYAYGGPNMAVKSLEKLMNVPIDHYATIDMDGLHNMIDSIGGVDVVSNDTFTVDGVRFTKGQQTHVNGDQALKFIRSRKEEGAGGDFGRQQRQQIVLEAMANKIAS | not soluble |
| RSLQLDKLVNEMTQHYENSVPEDLTVHVGDIVAAPLPTNGSWYRARVLGTLENGNLDLYFVDFGDNGDCPLKDLRALRSDFLSLPFQAIECSLARIA | soluble |
| RSSLRKKEFGSKERLLEELRCKKTVLHEVDVTLDPDTAHPHLFLYEDSKSVRLEDSRQILPDRPERFDSWPCVLGRETFTSGRHYWEVEVGDRTDWAIGVCRENVVKKGFDPMTPDNGFWAVELYGNGYWALTPLRTSLRLAGPPRRVGVFLDYDAGDISFYNMSNGSLIYTFPSISFSGPLRPFFCLWSCGKKPLTICSTANGPEKVTVIANVQDD | not soluble |
| RTQFKINSIPTVSDPYHINYDLTFSLNFASNKRNTYGTGWLIDWKGDENNPEKNDPFKVYLATNLHVIDALRNNNDYEPYNKDSNNQAFNSEEITRFFSIGKYTYPSIFSELNFIINAREAFVSIQTSTIPKTAYAAVNFVETQGEDESYTDSLSTDNKRDIYADFAVI | not soluble |
| RVAHLLKKIHNSRPLLSMLKRMEMEPITPEIMLNKINASLSREVLTHHIVRKSLTYLEEHIPSLDSRFFTVVHGDVNHNNWLLSDRDELFLVDWEGAMIADPAIDIGMLLYNYVPQQQWSEWLETYGVQESLNLNKRMKWY | not soluble |
| RWETHVYRAVKDLLVGLGFTEVLQLVLTSPRLVEAAGFSSMAVEVLNPVQQEYSVLRPTLLITLLQTLRENQHRRKPVKVFEAGNAVYLEDGEPRDEEKLALGVLDEEAGFEDVQAPLYAVLRIMGVDFEVEEASHPMFMEGRTAAVKVGGERLGYIGEVKPEVLEAFGLEYPVAAAEISLEVLARWTS | soluble |
| RWITATDWASLPQTADTPALILFHGLEGGSASRYAQSIAHYFRARGWIVVIAHFRGCSGVPNRLARAYYSGDSAEVGFMLDTVRARIPHARWHAVGVSLGGNALLKYLGEHHDEASWLAAAAGVSVPLDLVAGGKALCTGFIARRIYTAYFLKTMRRKVLEKAKRFPGAIDVIRIAHARDLRDFDDAYTARMHGYRNALDYWTRASSKPWLAHIKTPTLVLNARNDPFLPESALPIPAECSDSVLLHQPAEGGHAGFPTGPFPAHLNWLPQRLG | not soluble |
| RYISESGSDKVQFLISTNIGEPLRPLEKIVSGGELSRIMLSMKTVFVNKDKIPSVIFDEIDTGISGRIAERVADKMYAVSENHQVFCVTHLPQIACMSDTQFMV | not soluble |
| RYLLQRKASEALEVEVVDTWQADAVRDTRTLSGGESFLVSLALALALSDLVSHKTRIDSLFLDEGFGTLDSETLDTALDALDALNASGKTIGVISHVEAMKERIPVQIKVKKINGLGYSKLESAFAMK | not soluble |
| SAAGVDGDTAAAAAAGGGVVVVFDFDRTIIEWDSDDWVITKLGASDAFRRLRPTMRWNPLMDRMMVELHAQGRSADDIRDCLKSAPLDAHVLSAITTASALGCDLRVASDANAFFIETVLEHHGVLGCFSEISTNPARVDGNGRLRISPFHDPDDSSPHGCSLCPENMCKGKIIERIQATANGKRHFIYIGDGRGDYCPSLKLGEGDYVMPKEKYPLWNLISSNKQLLKAEVHPWNNGEELEQTLLKLVNKLITPPAQPSQFEYKCDMSNPVSTEVGQALRVPH | soluble |
| SAANVAHGLQQNVLYVDSNGGLTASRLLQLLQAKTQDEEEQAEALRRIQVVHAFDIFQMLDVLQELRGTVAQQVTGSSGTVKVVVVDSVTAVVSPLLGGQQREGLALMMQLARELKTLARDLGMAVVVTNHITRDRDSGRLKPALGRSWSFVPSTRILLDTIEGAGASGGRRMACLAKSSRQPTGFQEMVDIGTWGTSEQSATLQGDQT | soluble |
| SAELQEVQITEEKPLLPGQTPEAAKEAELAARILLDQGQTHSVETPYVSVTFTVYGTPKPKRPAILTYHDVGLNYKSCFQPLFQFEDMQEIIQNFVRVHVDAPGMEEGAPVFPLGYQYPSLDQLADMIPCVLQYLNFSTIIGVGVGAGAYILARYALNHPDTVEGLVLINIDPNAKGWMDWAAHKLTGLTSSIPEMILGHLFSQEELSGNSELIQKYRNIITHAPNLDNIELYWNSYNNRRDLNFERGGDITLRCPVMLVVECNSKLDPTQTSFLKMADSGGQPQLTQPGKLTEAFKYFLQGMGYMASSCMTRLSRSRTASLTSAASVDGNRSRSRTLSQSSESGTLSSGPPGHTMEVSC | not soluble |
| SAESENVSNNISLYSEETVILDVKGKNKTDVIDEMIGILDKSGVLLDKKKFKEEILKREEISSTGFGMGIAIPHAKTDAVKVPRVAVGVSKEGFDFESEDGSLAHIIFMIAATDNGDNLHLKTLSQLSSKLMNEEFLNELLNSKTSREIVSKLNNEEIKSV | not soluble |
| SAESSKLSATTVEAAPAMIKAKDVISPSEKEESDQTEITKVSVLKNLDEKEMIKEFADRLQRLEAKVDLLVTKADLLAIKADIQELLISAKGEKVPAMKTSAKASSESDDSYMDTSSEDESSSAEEPVNKPAASAAKPATKDSLFSAGFKPAAKDSLFSAGFKPDSLFSAGFEPAAKDSLFSAGFKPGSLFSAGFEPAAKDSLFSAGFKPDSLFSVGVKPAAKDSLFSVGVNGRSFSVTGFDASLPVDDIKSALSKYFSSFGEITRVFVPPSHGTGGSLGYAYIDLKEGAEKALELGRHDVGGWDLVVGKAEPIRSGSTWPFPGRCGNQGRCTFC | soluble |
| SANLPTVLVTGASGRTGQIVYKKLKEGSDKFVAKGLVRSAQGKEKIGGEADVFIGDITDADSINPAFQGIDALVILTSAVPKMKPGFDPTKGGRPEFIFEDGQYPEQVDWIGQKNQIDAAKVAGVKHIVVVGSMGGTNPDHPLNKLGNGNILVWKRKAEQYLADSGTPYTIIRAGGLLDKEGGVRELLVGKDDELLQTDTKTVPRADVAEVCIQALLFEEAKNKAFDLGSKPEGTSTPTKDFKALFSQVTSRF | soluble |
| SAQAQRVQDAIQHWESHHPKEVAARSTRLAELKQALAEQGAVVRTLQPKVTTTSPQAMLKQAMPALQKMETYACTDGLTFVGKHSSHRRQVEERLDSFGGSQSRKAANKQANDMSNMAAIAAKRGNVSLNQLKSIAACVAQAQAGCCTTFAYSAAAELMKHNQDNQQRIEVVAHRGAKGHSQTHCFVVVGRDPNSELSKPETWGKQAHVIDPWAATIGGRLQGTPSNPPIANLWPPTESV | not soluble |
| SATTIGPNTCSIDDYKPYCCQSMSGSASLGCVVGVIGSQCGASVKCCKDDVTNTGNSFLIINAANCVA | soluble |
| SCTLGRLVSPGPCPRPYLVITEQPKQRGMRFRYECEGRSAGSILGESSTEASKTQPAIELRDCGGLREVEVTACLVWKDWPHRVHPHSLVGKDCTDGVCRVRLRPHVSPRHSFNNLGIQCVRKKEIEAAIERKIQLGIDPYNAGSLKNHQEVDMNVVRICFQASYRDQQGHLHRMDPILSEPVYDKKSTNTSELRICRINKESGPCTGGEELYLLCDKVQKEDISVVFSTASWEGRADFSQADVHRQIAIVFKTPPYEDLEISEPVTVNVFLQRLTDGVCSEPLPFTYLPRDHDSY | soluble |
